Measurements reported in publication PMC9844003.

How the values were obtained:
[1] = target: extracellular domain of CD47 fused to a His(×6)-Avi-tag (human); assay: ELISA; pH 6.2
[2] = target: extracellular domain of CD47 fused to a His(×6)-Avi-tag (human); assay: ELISA; pH 6.4
[3] = target: extracellular domain of CD47 fused to a His(×6)-Avi-tag (human); assay: ELISA; pH 6.6
[4] = target: extracellular domain of CD47 fused to a His(×6)-Avi-tag (human); assay: ELISA; pH 6.8
[5] = target: extracellular domain of CD47 fused to a His(×6)-Avi-tag (human); assay: ELISA; pH 7.0
[6] = target: extracellular domain of CD47 fused to a His(×6)-Avi-tag (human); assay: ELISA; pH 7.2
[7] = target: extracellular domain of CD47 fused to a His(×6)-Avi-tag (human); assay: ELISA; pH 7.4
[8] = target: extracellular domain of CD47 fused to a His(×6)-Avi-tag (human); assay: ELISA; pH 7.6

Chain of extracellular domain of CD47 fused to a His(×6)-Avi-tag (human) (Q08722 19-141): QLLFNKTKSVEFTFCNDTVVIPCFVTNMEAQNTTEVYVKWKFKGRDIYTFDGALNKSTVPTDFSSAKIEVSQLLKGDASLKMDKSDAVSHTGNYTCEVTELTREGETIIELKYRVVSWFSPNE

EC50 [1]: 0.04 nM
EC50 [2]: 0.04 nM
EC50 [3]: 0.04 nM
EC50 [4]: 0.03 nM
EC50 [5]: 0.04 nM
EC50 [6]: 0.03 nM
EC50 [7]: 0.04 nM
EC50 [8]: 0.04 nM
Substance: Hu5F9
